Assay results reported in PMC3913652.

Target: rat GLP-1 receptor (rat) (UniProt P32301)
Sequence (P32301 22-463): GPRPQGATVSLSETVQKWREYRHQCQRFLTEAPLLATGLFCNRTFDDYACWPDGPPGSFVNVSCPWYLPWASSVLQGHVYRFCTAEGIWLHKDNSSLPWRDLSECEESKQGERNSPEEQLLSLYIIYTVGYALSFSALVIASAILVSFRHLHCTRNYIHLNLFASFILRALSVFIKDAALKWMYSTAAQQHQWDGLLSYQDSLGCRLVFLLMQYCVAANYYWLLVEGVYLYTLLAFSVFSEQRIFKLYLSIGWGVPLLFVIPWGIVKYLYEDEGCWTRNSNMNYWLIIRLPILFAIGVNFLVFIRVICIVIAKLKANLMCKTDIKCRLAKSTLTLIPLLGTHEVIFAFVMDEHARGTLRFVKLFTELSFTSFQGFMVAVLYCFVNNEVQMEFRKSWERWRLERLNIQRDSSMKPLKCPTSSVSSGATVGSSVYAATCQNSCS

Work on [Leu^14]exenatide (peptide) yielded an EC50, cAMP in 6–23 clone 6 cells (GLP-1 Receptor Functional Assay, 0.1% BSA) of 6 pM.
